The labels stand for the following.
B1: "Na(+)/H(+) exchange regulatory cofactor NHE-RF1" (Homo sapiens), O14745 (parent)
chain: MSADAAAGAPLPRLCCLEKGPNGYGFHLHGEKGKLGQYIRLVEPGSPAEKAGLLAGDRLVEVNGENVEKETHQQVVSRIRAALNAVRLLVVDPETDEQLQKLGVQVREELLRAQEAPGQAEPPAAAEVQGAGNENEPREADKSHPEQRELRPRLCTMKKGPSGYGFNLHSDKSKPGQFIRSVDPDSPAEASGLRAQDRIVEVNGVCMEGKQHGDVVSAIRAGGDETKLLVVDRETDEFFKKCRVIPSQEHLNGPLPVPFTNGEIQKENSREALAEAALESPRPALVRSASSDTSEELNSQDSPPKQDSTAPSSTSSSDPILDFNISLAMAKERAHQKRSSKRAPQMDWSKKNELFSNL
B2: "Na(+)/H(+) exchange regulatory cofactor NHE-RF1" (Homo sapiens), O14745 (parent)
chain: B1 chain
partner: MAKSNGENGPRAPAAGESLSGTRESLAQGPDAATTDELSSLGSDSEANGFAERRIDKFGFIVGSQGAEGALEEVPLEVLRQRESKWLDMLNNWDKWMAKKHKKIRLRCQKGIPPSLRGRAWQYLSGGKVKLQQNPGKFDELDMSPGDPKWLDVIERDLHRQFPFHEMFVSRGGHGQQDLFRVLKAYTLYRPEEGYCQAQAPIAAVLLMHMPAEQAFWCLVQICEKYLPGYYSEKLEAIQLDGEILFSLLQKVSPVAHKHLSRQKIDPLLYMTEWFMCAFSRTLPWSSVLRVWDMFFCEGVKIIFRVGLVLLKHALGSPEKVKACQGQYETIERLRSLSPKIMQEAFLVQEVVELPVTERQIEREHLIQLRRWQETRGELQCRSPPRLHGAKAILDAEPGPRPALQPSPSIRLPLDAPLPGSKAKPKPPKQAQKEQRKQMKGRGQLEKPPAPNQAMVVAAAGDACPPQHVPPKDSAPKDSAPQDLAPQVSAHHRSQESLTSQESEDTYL

In the first assay the parent is B1. The conditions noted are these: with ezri_human EZR.
Consider S162D;S339D;S340D, for which the “effect of a mutation on the interaction” value is on record as “decreasing interaction strength”.

In the case of S280D;S302D, the “effect of a mutation on the interaction” value is “decreasing interaction strength”.

As for S280A;S302A, the “effect of a mutation on the interaction” value is listed as “decreasing interaction strength”.

With S162A;S339A;S340A, the “effect of a mutation on the interaction” value was “decreasing interaction strength”.

Variants of B1 are the subject of a further assay. The conditions noted are these: with ezri_human EZR. This is another data set of the same source.
With F355R, the “effect of a mutation on the interaction” value is reported as “disrupting interaction strength”.

F355A: the “effect of a mutation on the interaction” value was “with no effect”.

In the case of M346A;W348A, the “effect of a mutation on the interaction” value was “decreasing interaction strength”.

Another assay covers variants of B2. The conditions noted are these: with tb10a_human TBC1D10A.
With S162D;S339D;S340D, the “effect of a mutation on the interaction” value is given as “with no effect”.

With S280D;S302D, the “effect of a mutation on the interaction” value is on record as “with no effect”.

In the case of S280A;S302A, the “effect of a mutation on the interaction” value is given as “with no effect”.

As for S162A;S339A;S340A, the “effect of a mutation on the interaction” value is given as “with no effect”.

Values taken from IntAct's records for PubMed 20937695.
